In patent publication US20140322218A1 (Amgen, published 2014):
Where a chain is given by its changes, count along the chain named. Names may count otherwise.

T1: ckCDH19(1-43)::FLAG::ckCDH19(44-776), on 293T cells (chicken)
T1 construct: Entry holds leader (1-43), Flag tag and CDH19 part; leader left out; also called Ck EC1-5
T1 chain: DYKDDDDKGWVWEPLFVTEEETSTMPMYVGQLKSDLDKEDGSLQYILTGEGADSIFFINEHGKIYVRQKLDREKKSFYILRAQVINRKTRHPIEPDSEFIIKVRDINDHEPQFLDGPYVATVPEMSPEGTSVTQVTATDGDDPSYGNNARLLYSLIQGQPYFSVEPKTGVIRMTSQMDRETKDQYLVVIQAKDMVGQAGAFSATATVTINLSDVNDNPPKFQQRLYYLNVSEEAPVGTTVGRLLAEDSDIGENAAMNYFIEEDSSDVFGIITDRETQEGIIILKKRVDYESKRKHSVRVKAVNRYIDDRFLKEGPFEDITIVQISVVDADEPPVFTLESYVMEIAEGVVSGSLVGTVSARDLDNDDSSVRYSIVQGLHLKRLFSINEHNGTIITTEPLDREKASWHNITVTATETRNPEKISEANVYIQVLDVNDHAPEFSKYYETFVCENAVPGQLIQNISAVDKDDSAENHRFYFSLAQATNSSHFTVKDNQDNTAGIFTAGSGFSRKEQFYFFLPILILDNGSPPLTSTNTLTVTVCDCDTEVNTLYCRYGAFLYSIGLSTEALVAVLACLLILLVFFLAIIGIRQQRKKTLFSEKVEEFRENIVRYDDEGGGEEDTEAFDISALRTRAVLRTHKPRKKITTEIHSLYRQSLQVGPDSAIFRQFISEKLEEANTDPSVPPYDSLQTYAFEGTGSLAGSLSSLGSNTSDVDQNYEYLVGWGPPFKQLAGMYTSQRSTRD

T2: ckCDH19(1-43)::FLAG::ckCDH19(44-141)::huCDH19(142-249)::ckCDH19(250-776), on 293T cells (human/chicken chimera)
T2 construct: Entry holds leader (1-43), Flag tag and CDH19 part; leader left out; also called Hu EC2 (chicken backbone)
T2 chain: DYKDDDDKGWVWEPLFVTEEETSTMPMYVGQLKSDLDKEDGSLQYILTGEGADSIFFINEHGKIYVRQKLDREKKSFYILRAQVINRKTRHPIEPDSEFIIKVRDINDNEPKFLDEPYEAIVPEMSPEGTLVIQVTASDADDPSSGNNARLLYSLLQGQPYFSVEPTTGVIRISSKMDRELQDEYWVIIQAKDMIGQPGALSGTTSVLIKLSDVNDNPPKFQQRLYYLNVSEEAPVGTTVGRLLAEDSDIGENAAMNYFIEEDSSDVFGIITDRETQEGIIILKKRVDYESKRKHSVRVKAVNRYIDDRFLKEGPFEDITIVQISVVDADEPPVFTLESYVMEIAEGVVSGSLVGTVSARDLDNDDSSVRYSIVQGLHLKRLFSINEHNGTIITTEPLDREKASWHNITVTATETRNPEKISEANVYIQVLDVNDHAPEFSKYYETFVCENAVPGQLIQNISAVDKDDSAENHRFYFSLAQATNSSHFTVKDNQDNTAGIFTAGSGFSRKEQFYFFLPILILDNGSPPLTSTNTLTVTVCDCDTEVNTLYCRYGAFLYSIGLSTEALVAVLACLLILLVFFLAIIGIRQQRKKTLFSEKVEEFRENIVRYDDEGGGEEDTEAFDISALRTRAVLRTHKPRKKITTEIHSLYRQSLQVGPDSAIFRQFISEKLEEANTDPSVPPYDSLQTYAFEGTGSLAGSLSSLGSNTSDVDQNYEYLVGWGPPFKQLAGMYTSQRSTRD

T3: (1-43)::FLAG::ckCDH19(44-468)::huCDH19(464-772), on 293T cells (human/chicken chimera)
T3 construct: Entry holds leader (1-43), Flag tag and CDH19 part; leader left out; also called Hu EC5 (chicken backbone)
T3 chain: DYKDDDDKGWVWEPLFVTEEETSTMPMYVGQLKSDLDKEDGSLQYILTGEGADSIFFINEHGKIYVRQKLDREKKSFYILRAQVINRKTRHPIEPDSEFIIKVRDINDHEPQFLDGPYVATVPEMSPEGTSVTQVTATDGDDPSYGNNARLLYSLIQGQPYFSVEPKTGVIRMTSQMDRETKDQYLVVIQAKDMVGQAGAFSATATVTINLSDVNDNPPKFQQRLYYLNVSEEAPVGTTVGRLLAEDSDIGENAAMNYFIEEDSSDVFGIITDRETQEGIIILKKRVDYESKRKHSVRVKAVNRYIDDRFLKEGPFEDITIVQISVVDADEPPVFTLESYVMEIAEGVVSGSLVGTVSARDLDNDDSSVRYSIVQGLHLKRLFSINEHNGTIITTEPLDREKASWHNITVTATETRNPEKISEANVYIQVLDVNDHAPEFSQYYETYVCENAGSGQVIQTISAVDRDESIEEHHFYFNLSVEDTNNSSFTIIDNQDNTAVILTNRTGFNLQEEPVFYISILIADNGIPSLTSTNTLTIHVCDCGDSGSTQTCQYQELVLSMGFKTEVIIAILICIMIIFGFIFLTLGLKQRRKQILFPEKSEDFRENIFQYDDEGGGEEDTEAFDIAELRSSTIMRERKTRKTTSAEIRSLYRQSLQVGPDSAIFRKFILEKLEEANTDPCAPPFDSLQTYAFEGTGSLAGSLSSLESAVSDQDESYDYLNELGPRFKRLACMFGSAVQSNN

B1: hu anti-<huCDH19> 4A9 VH::huIgG1z / 4A9 VL::huLLC-C1 (Ab ID 13589) (antibody, V domains shown)
VH: QVQLQESGPGLVKPSETLSLTCTVSGGSISGYYWSWIRQPPGKGLEWFAYFSYSGSTNYNPSLKSRVTLSVDTSKNQFSLKLSSVTAADTAVYYCARNWAFHFDFWGQGTLVTVSS
VL: QSVLTQPPSVSGAPGQRVTISCTGSSSNIGTGYAVHWYQQFPGTAPKLLIYGNNNRPSGVPDRFSGSKSGTSASLAITGLQAEDEADYYCQSYDSRLSGWVFGGGTKLTVLG
notes: Recombinant fully human IgG1
B2: anti-CDH19 antibody 2G6 (Ab ID 13588) (antibody, human IgG1, lambda, V domains shown)
VH: QVQLVESGGGVVQPGRSLRLSCAASGFTFSSYGMHWVRQAPGKGLEWVAFIWYDGSNKYYADSVKDRFTISRDNSKNTLYLQMKSLRAEDTAVYYCARRAGIIGTIGYYYGMDVWGQGTTVTVSS
VL: SYELTQPPSVSVSPGQTASITCSGDRLGEKYTCWYQQRPGQSPLLVIYQDTKRPSGIPERFSGSNSGNTATLTISGTQAMDEADYYCQAWDSSTVVFGGGTKLTVLG
B3: hu anti-<huCDH19> 23A10.3 (1-474)(L92Q) VH::huIgG1z / 23A10.3 (1-231)(C42S) VL::huLLC-C2 (Ab ID 14077) (antibody, V domains shown)
VH: B2 VH with S31R, M34I, F50V, D66G, K84N, T91S, I103P, I106T
VL: B2 VL with T32V, C33S, R38K, L44I, T51N, R53W
notes: Engineered variant of 23A10
B4: hu anti-<huCDH19> 25F8.1 (1-469)(F90Y) VH::huIgG1z / 25F8.1 (1-235)(K45Q,S102A,D111E) VL::huLLC-C2 (Ab ID 14096) (antibody, V domains shown)
VH: QVQLVQSGAEVKKPGASVKVSCKASGYTFTSYYIHWVRQAPGQGLEWMGIINPSGGSTRYAQKFQGRVTMTRDTSTSTVYMELSSLRSEDTAVYYCARGGIQLWLHFDYWGQGTLVTVSS
VL: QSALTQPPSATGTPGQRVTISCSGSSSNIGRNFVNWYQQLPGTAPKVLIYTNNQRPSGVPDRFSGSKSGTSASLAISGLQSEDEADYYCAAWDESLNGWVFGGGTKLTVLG
notes: Engineered variant of 25F8
B5: hu anti-<huCDH19> 26D1.1 VH::huIgG1z / 26D1.1 VL::huLLC-C2 (Ab ID 13882) (antibody, V domains shown)
VH: B4 VH with G26R, I34M, H35S, N52H, S57D, R59T, R72G, Q102K
VL: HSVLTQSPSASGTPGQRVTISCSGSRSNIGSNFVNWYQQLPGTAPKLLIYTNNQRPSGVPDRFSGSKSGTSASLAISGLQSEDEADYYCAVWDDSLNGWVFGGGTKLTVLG
B6: hu anti-<huCDH19> 4B10 VH::huIgG1z / 4B10 VL::huKLC (Ab ID 13590) (antibody, V domains shown)
VH: QVQLVESGGGVVQPGRSLRLSCAASGFTFSSYDMHWVRQAPGKGLEWVAVISYDGTNEYYADSVKGRFTISRDTSKNTLYLQMNSLRAEDTAVYYCARERYFDWSFDYWGQGTLVSVSS
VL: EIVLTQSPGTLSLSPGERATLSCRASQSVSNTYLAWYHQRPGQAPRLLIYGASSRATGIPDRFSGSGSGTDFALTISSLEPEDFAVYYCQQYSNSWTFGQGTKVEIKR
B7: anti-CDH19 antibody 4A2 (Ab ID 13592) (antibody, human IgG1, kappa, V domains shown)
VH: QVQLQESGPGLVKPSQTLSLTCTVSGGSISSSGYYWSWIRQHPGKGLEWIGYIYYTGSAYYNPSLKSRVTISVDTSKNQFSLKLSSVTAADTAVYYCARDGSSGWYFQYWGQGTLVTVSS
VL: EIVLTQSPGTLSLSPGERATLSCRASRNISSSYLAWYQQKPGQAPRLLIYGPSSRATGIPDRFSGSGSGTDFTLTISRLEPEDFTVYYCQQYGSSFTFGPGTKVDIKR

Molecular target: T4, huCDH19(44-772), Flag-tagged, on 293T cells (human, UniProt Q9H159 44-772)
T4 construct: Expressed with native leader (1-43) followed by a Flag tag; leader left out; also called Hu EC1-5
Assay: FACS, transfected 293T;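 note: antibody binding to chimera-expressing cells with 2 mM CaCl2 present, cell-bound Alexa647-labelled antibody read by flow cytometry, mock-transfected cells serving as control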
Description: (§1) The following binding assay was completed in presence of 2 mM CaCl2. […] Cells were then washed one time and the amount of cell associated Alexa647-labelled Ab was quantitated by flow cytometry. The experiments included mock transfected controls.

Binder | binding result
B1 | binds
B2 | binds
B3 | binds
B4 | binds
B5 | binds
B6 | binds

Molecular target: T1, ckCDH19(1-43)::FLAG::ckCDH19(44-776), …
Assay: FACS, transfected 293T;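 note: antibody binding to chimera-expressing cells with 2 mM CaCl2 present, cell-bound Alexa647-labelled antibody read by flow cytometry, mock-transfected cells serving as control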
Description: as §1

Binder | binding result
B1 | no binding (tested: 5 ug/ml)
B2 | no binding (tested: 5 ug/ml)
B3 | no binding (tested: 5 ug/ml)
B7 | no binding (tested: 5 ug/ml)
B4 | no binding (tested: 5 ug/ml)
B5 | no binding (tested: 5 ug/ml)
B6 | no binding (tested: 5 ug/ml)

Molecular target: T5, huCDH19(1-43)::FLAG::hu(44-141)::ckCDH19(142-776), on 293T cells (human/chicken chimera)
T5 construct: Entry holds leader (1-43), Flag tag and CDH19 part; leader left out; also called Hu EC1 (chicken backbone)
Assay: FACS, transfected 293T;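 note: antibody binding to chimera-expressing cells with 2 mM CaCl2 present, cell-bound Alexa647-labelled antibody read by flow cytometry, mock-transfected cells serving as control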
Description: as §1

Binder | binding result
B1 | binds
B2 | no binding (tested: 5 ug/ml)
B3 | no binding (tested: 5 ug/ml)
B7 | no binding (tested: 5 ug/ml)
B4 | binds
B5 | binds
B6 | no binding (tested: 5 ug/ml)

Molecular target: T2, ckCDH19(1-43)::FLAG::ckCDH19(44-141)::hu …
Assay: FACS, transfected 293T;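 note: antibody binding to chimera-expressing cells with 2 mM CaCl2 present, cell-bound Alexa647-labelled antibody read by flow cytometry, mock-transfected cells serving as control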
Description: as §1

Binder | binding result
B1 | no binding (tested: 5 ug/ml)
B2 | no binding (tested: 5 ug/ml)
B3 | no binding (tested: 5 ug/ml)
B7 | no binding (tested: 5 ug/ml)
B4 | no binding (tested: 5 ug/ml)
B5 | no binding (tested: 5 ug/ml)
B6 | no binding (tested: 5 ug/ml)

Molecular target: T6, ckCDH19(1-43)::FLAG::ckCDH19(44-249)::huCDH19(250-364)::ckCDH19(365-776), on 293T cells (human/chicken chimera)
T6 construct: Entry holds leader (1-43), Flag tag and CDH19 part; leader left out; also called Hu EC3 (chicken backbone)
Assay: FACS, transfected 293T
Description: as §1

Binder | binding result
B1 | no binding (tested: 5 ug/ml)
B2 | binds
B3 | binds
B4 | no binding (tested: 5 ug/ml)
B5 | no binding (tested: 5 ug/ml)
B6 | binds

Molecular target: T3, (1-43)::FLAG::ckCDH19(44-468)::huCDH19(4 …)
Assay: FACS, transfected 293T
Description: as §1

Binder | binding result
B1 | no binding (tested: 5 ug/ml)
B2 | no binding (tested: 5 ug/ml)
B3 | no binding (tested: 5 ug/ml)
B7 | no binding (tested: 5 ug/ml)
B4 | no binding (tested: 5 ug/ml)
B5 | no binding (tested: 5 ug/ml)
B6 | no binding (tested: 5 ug/ml)
